# PMC8946217, “Selective Targeting of Protein Kinase C (PKC)-θ Nuclear Translocation Reduces Mesenchymal Gene Signatures and Reinvigorates Dysfunctional CD8^+ T Cells in Immunotherapy-Resistant and Metastatic Cancers” (Cancers, 2022)
# B1: His6-PKC-θ (protein kinase C theta) (enzyme)
# chain: MSPFLRIGLSNFDCGSCQSCQGEAVNPYCAVLVKEYVESENGQMYIQKKPTMYPPWDSTFDAHINKGRVMQIIVKGKNVDLISETTVELYSLAERCRKNNGKTEIWLELKPQGRMLMNARYFLEMSDTKDMNEFETEGFFALHQRRGAIKQAKVHHVKCHEFTATFFPQPTFCSVCHEFVWGLNKQGYQCRQCNAAIHKKCIDKVIAKCTGSAINSRETMFHKERFKIDMPHRFKVYNYKSPTFCEHCGTLLWGLARQGLKCDACGMNVHHRCQTKVANLCGINQKLMAEALAMIESTQQARCLRDTEQIFREGPVEIGLPCSIKNEARPPCLPTPGKREPQGISWESPLDEVDKMCHLPEPELNKERPSLQIKLKIEDFILHKMLGKGSFGKVFLAEFKKTNQFFAIKALKKDVVLMDDDVECTMVEKRVLSLAWEHPFLTHMFCTFQTKENLFFVMEYLNGGDLMYHIQSCHKFDLSRATFYAAEIILGLQFLHSKGIVYRDLKLDNILLDKDGHIKIADFGMCKENMLGDAKTNTFCGTPDYIAPEILLGQKYNHSVDWWSFGVLLYEMLIGQSPFHGQDEEELFHSIRMDNPFYPRWLEKEAKDLLVKLFVREPEKRLGVRGDIRQHPLFREINWEELERKEIDPPFRPKVKSPFDCSNFDKEFLNEKPRLSFADRALINSMDQNMFRNFSFMNPGMERLIS
# notes: protein kinase C theta (PKC-θ); also called recombinant purified His6-PKC-θ; source: recombinant, purified
# Molecular target: biotinylated GST-importin α2 (UniProt P52293 1-529, biotinylated)
# Assay: AlphaScreen or HTRF; about 30 nM His6-PKC-θ and increasing concentrations of biotinylated GST-importins; in triplicate; three parameter sigmoidal curves fitted; quenched values in the hooking zone excluded
# Conditions: both partners purified
binder,measurement,value
B1,Kd,2.75 nM
